# Source: article PMC7717453, “A study of Rose Bengal against a 2-keto-3-deoxy-D-manno-octulosonate cytidylyltransferase as an antibiotic candidate” (Journal of Enzyme Inhibition and Medicinal Chemistry, 2020)
# T1: PaKdsB (2-keto-3-deoxy-D-manno-octulosonate cytidylyltransferase) (Pseudomonas aeruginosa, UniProt Q9HZM5)
# T1 construct: gene kdsB; native KdsB with N-terminal tag MHHHHHH EFSQQDSD
# T1 sequence (Q9HZM5 1-254): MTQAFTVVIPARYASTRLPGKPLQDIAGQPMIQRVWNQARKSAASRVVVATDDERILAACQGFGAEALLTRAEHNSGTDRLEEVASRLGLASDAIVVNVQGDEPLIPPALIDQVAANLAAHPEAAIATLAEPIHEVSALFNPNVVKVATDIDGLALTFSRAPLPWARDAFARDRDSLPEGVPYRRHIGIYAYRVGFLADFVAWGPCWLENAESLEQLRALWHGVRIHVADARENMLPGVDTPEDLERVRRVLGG
# Tests used:
# [1] = target: T2, BtKdsB (2-keto-3-deoxy-D-manno-octulosonate cytidylyltransferase) (Burkholderia thailandensis, UniProt Q2T0K3); experiment: biochemical
# T2 construct: gene kdsB; native KdsB with N-terminal tag MHHHHHH GGGGG
# [2] = target: T1, PaKdsB (2-keto-3-deoxy-D-manno-octulosonate cytidylyltransferase); experiment: malachite green enzyme assay (IC50), inhibition kinetics; increased thermostability; assay type: biochemical
# Text: malachite green enzyme assay (IC50), inhibition kinetics; increased thermostability on PaKdsB (2-keto-3-deoxy-D-manno-octulosonate cytidylyltransferase) | The IC50 value determined from the dose-dependent inhibitory curve of Rose Bengal
# [3] = tested on: Nc1ccn([C@@H]2O[C@H](COP(=O)(O)OP(=O)(O)OP(=O)(O)O)[C@@H](O)[C@H]2O)c(=O)n1; experiment: purified protein
# [4] = tested on: O=C(O)C(=O)C[C@@H](O)[C@@H](O)[C@H](O)[C@H](O)CO; experiment: purified protein
# [5] = substrate: O=C(O)C(=O)C[C@@H](O)[C@@H](O)[C@H](O)[C@H](O)CO; experiment: steady-state kinetics (Km), malachite green assay; assay type: biochemical, Pseudomonas aeruginosa; settings: CTP ([…]), Mg2+ ([…] MgCl2) substrate binding site
# [6] = substrate: Nc1ccn([C@@H]2O[C@H](COP(=O)(O)OP(=O)(O)OP(=O)(O)O)[C@@H](O)[C@H]2O)c(=O)n1; experiment: steady-state kinetics (Km), malachite green assay; assay type: biochemical, Pseudomonas aeruginosa; settings: KDO ([…]), Mg2+ ([…] MgCl2) nucleotide binding site
# T2 sequence (Q2T0K3 whole entry): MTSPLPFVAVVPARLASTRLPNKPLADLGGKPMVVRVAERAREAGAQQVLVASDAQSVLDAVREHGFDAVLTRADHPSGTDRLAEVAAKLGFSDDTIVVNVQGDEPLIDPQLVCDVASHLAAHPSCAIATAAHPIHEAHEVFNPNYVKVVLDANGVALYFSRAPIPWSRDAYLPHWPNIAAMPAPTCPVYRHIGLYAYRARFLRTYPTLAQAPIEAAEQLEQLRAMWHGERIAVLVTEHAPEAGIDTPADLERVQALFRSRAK
molecule,measurement,setting,value
O=C1OC2(c3cc(I)c(O)c(I)c3Oc3c2cc(I)c(O)c3I)c2c(Cl)c(Cl)c(Cl)c(Cl)c21 [Rose Bengal],IC50,[1],7.24 µM
same,IC50,[2],14.7 µM
BtKdsB (2-keto-3-deoxy-D-manno-octulosonate cytidylyltransferase) (Burkholderia thailandensis E264),Km,[3],123.9 ± 34 µM
same,kcat,[3],0.142 ± 0.0193 s⁻¹
same,Km,[4],56 ± 11 µM
same,kcat,[4],0.116 ± 0.0062 s⁻¹
"PaKdsB (2-keto-3-deoxy-D-manno-octulosonate cytidylyltransferase) (Pseudomonas aeruginosa PAO1) (protein, native KdsB with N-terminal tag MHHHHHH EFSQQDSD) MTQAFTVVIPARYASTRLPGKPLQDIAGQPMIQRVWNQARKSAASRVVVATDDERILAACQGFGAEALLTRAEHNSGTDRLEEVASRLGLASDAIVVNVQGDEPLIPPALIDQVAANLAAHPEAAIATLAEPIHEVSALFNPNVVKVATDIDGLALTFSRAPLPWARDAFARDRDSLPEGVPYRRHIGIYAYRVGFLADFVAWGPCWLENAESLEQLRALWHGVRIHVADARENMLPGVDTPEDLERVRRVLGG",Km,[5],61 ± 11 µM
same,kcat,[5],0.0758 ± 0.00383 s⁻¹
same,Km,[6],98.3 ± 30 µM
same,kcat,[6],0.132 ± 0.0184 s⁻¹
